B1: CE115HA000 A56Q (antibody, human IgG1, kappa, L234A L235A, N297A, name in Kabat numbering)
heavy: QVQLVESGGGVVQPGRSLRLSCAASGFTFSNAWMHWVRQAPGKGLEWVAQIKAKSNNYQTYYAESVKGRFTISRDDSKNSLYLQMNSLKTEDTAVYYCRYVHYGAYYGVDAWGQGTTVTVSSASTKGPSVFPLAPSSKSTSGGTAALGCLVKDYFPEPVTVSWNSGALTSGVHTFPAVLQSSGLYSLSSVVTVPSSSLGTQTYICNVNHKPSNTKVDKKVEPKSCDKTHTCPPCPAPEAAGGPSVFLFPPKPKDTLMISRTPEVTCVVVDVSHEDPEVKFNWYVDGVEVHNAKTKPREEQYASTYRVVSVLTVLHQDWLNGKEYKCKVSNKALPAPIEKTISKAKGQPREPQVYTLPPSRCELTKNQVSLSCAVKGFYPSDIAVEWESNGQPENNYKTTPPVLDSDGSFFLVSKLTVDKSRWQQGNVFSCSVMHEALHNHYTQKSLSLSPDYKDDDDK
chain: EPKSSDKTHTCPPCPAPELLGGPSVFLFPPKPKDTLMISRTPEVTCVVVDVSHEDPEVKFNWYVDGVEVHNAKTKPREEQYNSTYRVVSVLTVLHQDWLNGKEYKCKVSNKALPAPIEKTISKAKGQPREPQVCTLPPSRDELTKNQVSLWCLVKGFYPSDIAVEWESNGQPENNYKTTPPVLDSDGSFFLYSKLTVDKSRWQQGNVFSCSVMHEALHNRYTQKSLSLSP
light: DIVMTQSPLSLPVTPGEPASISCRSSQSLVHSNRNTYLHWYQQKPGQAPRLLIYKVSNRFSGVPDRFSGSGSGTDFTLKISRVEAEDVGVYYCGQGTQVPYTFGQGTKLEIKRTVAAPSVFIFPPSDEQLKSGTASVVCLLNNFYPREAKVQWKVDNALQSGNSQESVTEQDSKDSTYSLSSTLTLSKADYEKHKVYACEVTHQGLSSPVTKSFNRGEC
notes: one-arm antibody
B2: CE115HA000 A60E (antibody, human IgG1, kappa, L234A L235A, N297A, name in Kabat numbering)
heavy: QVQLVESGGGVVQPGRSLRLSCAASGFTFSNAWMHWVRQAPGKGLEWVAQIKAKSNNYATYYEESVKGRFTISRDDSKNSLYLQMNSLKTEDTAVYYCRYVHYGAYYGVDAWGQGTTVTVSSASTKGPSVFPLAPSSKSTSGGTAALGCLVKDYFPEPVTVSWNSGALTSGVHTFPAVLQSSGLYSLSSVVTVPSSSLGTQTYICNVNHKPSNTKVDKKVEPKSCDKTHTCPPCPAPEAAGGPSVFLFPPKPKDTLMISRTPEVTCVVVDVSHEDPEVKFNWYVDGVEVHNAKTKPREEQYASTYRVVSVLTVLHQDWLNGKEYKCKVSNKALPAPIEKTISKAKGQPREPQVYTLPPSRCELTKNQVSLSCAVKGFYPSDIAVEWESNGQPENNYKTTPPVLDSDGSFFLVSKLTVDKSRWQQGNVFSCSVMHEALHNHYTQKSLSLSPDYKDDDDK
chain: EPKSSDKTHTCPPCPAPELLGGPSVFLFPPKPKDTLMISRTPEVTCVVVDVSHEDPEVKFNWYVDGVEVHNAKTKPREEQYNSTYRVVSVLTVLHQDWLNGKEYKCKVSNKALPAPIEKTISKAKGQPREPQVCTLPPSRDELTKNQVSLWCLVKGFYPSDIAVEWESNGQPENNYKTTPPVLDSDGSFFLYSKLTVDKSRWQQGNVFSCSVMHEALHNRYTQKSLSLSP
light: DIVMTQSPLSLPVTPGEPASISCRSSQSLVHSNRNTYLHWYQQKPGQAPRLLIYKVSNRFSGVPDRFSGSGSGTDFTLKISRVEAEDVGVYYCGQGTQVPYTFGQGTKLEIKRTVAAPSVFIFPPSDEQLKSGTASVVCLLNNFYPREAKVQWKVDNALQSGNSQESVTEQDSKDSTYSLSSTLTLSKADYEKHKVYACEVTHQGLSSPVTKSFNRGEC
notes: one-arm antibody
B3: CE115HA000 A56Y (antibody, human IgG1, kappa, L234A L235A, N297A, name in Kabat numbering)
heavy: QVQLVESGGGVVQPGRSLRLSCAASGFTFSNAWMHWVRQAPGKGLEWVAQIKAKSNNYYTYYAESVKGRFTISRDDSKNSLYLQMNSLKTEDTAVYYCRYVHYGAYYGVDAWGQGTTVTVSSASTKGPSVFPLAPSSKSTSGGTAALGCLVKDYFPEPVTVSWNSGALTSGVHTFPAVLQSSGLYSLSSVVTVPSSSLGTQTYICNVNHKPSNTKVDKKVEPKSCDKTHTCPPCPAPEAAGGPSVFLFPPKPKDTLMISRTPEVTCVVVDVSHEDPEVKFNWYVDGVEVHNAKTKPREEQYASTYRVVSVLTVLHQDWLNGKEYKCKVSNKALPAPIEKTISKAKGQPREPQVYTLPPSRCELTKNQVSLSCAVKGFYPSDIAVEWESNGQPENNYKTTPPVLDSDGSFFLVSKLTVDKSRWQQGNVFSCSVMHEALHNHYTQKSLSLSPDYKDDDDK
chain: EPKSSDKTHTCPPCPAPELLGGPSVFLFPPKPKDTLMISRTPEVTCVVVDVSHEDPEVKFNWYVDGVEVHNAKTKPREEQYNSTYRVVSVLTVLHQDWLNGKEYKCKVSNKALPAPIEKTISKAKGQPREPQVCTLPPSRDELTKNQVSLWCLVKGFYPSDIAVEWESNGQPENNYKTTPPVLDSDGSFFLYSKLTVDKSRWQQGNVFSCSVMHEALHNRYTQKSLSLSP
light: DIVMTQSPLSLPVTPGEPASISCRSSQSLVHSNRNTYLHWYQQKPGQAPRLLIYKVSNRFSGVPDRFSGSGSGTDFTLKISRVEAEDVGVYYCGQGTQVPYTFGQGTKLEIKRTVAAPSVFIFPPSDEQLKSGTASVVCLLNNFYPREAKVQWKVDNALQSGNSQESVTEQDSKDSTYSLSSTLTLSKADYEKHKVYACEVTHQGLSSPVTKSFNRGEC
notes: one-arm antibody
B4: CE115HA000 A60D (antibody, human IgG1, kappa, L234A L235A, N297A, name in Kabat numbering)
heavy: QVQLVESGGGVVQPGRSLRLSCAASGFTFSNAWMHWVRQAPGKGLEWVAQIKAKSNNYATYYDESVKGRFTISRDDSKNSLYLQMNSLKTEDTAVYYCRYVHYGAYYGVDAWGQGTTVTVSSASTKGPSVFPLAPSSKSTSGGTAALGCLVKDYFPEPVTVSWNSGALTSGVHTFPAVLQSSGLYSLSSVVTVPSSSLGTQTYICNVNHKPSNTKVDKKVEPKSCDKTHTCPPCPAPEAAGGPSVFLFPPKPKDTLMISRTPEVTCVVVDVSHEDPEVKFNWYVDGVEVHNAKTKPREEQYASTYRVVSVLTVLHQDWLNGKEYKCKVSNKALPAPIEKTISKAKGQPREPQVYTLPPSRCELTKNQVSLSCAVKGFYPSDIAVEWESNGQPENNYKTTPPVLDSDGSFFLVSKLTVDKSRWQQGNVFSCSVMHEALHNHYTQKSLSLSPDYKDDDDK
chain: EPKSSDKTHTCPPCPAPELLGGPSVFLFPPKPKDTLMISRTPEVTCVVVDVSHEDPEVKFNWYVDGVEVHNAKTKPREEQYNSTYRVVSVLTVLHQDWLNGKEYKCKVSNKALPAPIEKTISKAKGQPREPQVCTLPPSRDELTKNQVSLWCLVKGFYPSDIAVEWESNGQPENNYKTTPPVLDSDGSFFLYSKLTVDKSRWQQGNVFSCSVMHEALHNRYTQKSLSLSP
light: DIVMTQSPLSLPVTPGEPASISCRSSQSLVHSNRNTYLHWYQQKPGQAPRLLIYKVSNRFSGVPDRFSGSGSGTDFTLKISRVEAEDVGVYYCGQGTQVPYTFGQGTKLEIKRTVAAPSVFIFPPSDEQLKSGTASVVCLLNNFYPREAKVQWKVDNALQSGNSQESVTEQDSKDSTYSLSSTLTLSKADYEKHKVYACEVTHQGLSSPVTKSFNRGEC
notes: one-arm antibody

Biological target: T1, CD3 epsilon homodimer protein (UniProt P07766 23-126)
T1 construct: also called CD3 (CD3 epsilon)
T1 sequence (P07766 23-126): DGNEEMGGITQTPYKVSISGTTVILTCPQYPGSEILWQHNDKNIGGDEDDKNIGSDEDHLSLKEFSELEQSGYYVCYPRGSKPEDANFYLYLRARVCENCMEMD
Assay: SPR, CD3 epsilon homodimer on chip, one-arm antibody as analyte;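 also: surface plasmon resonance at 25 °C with CD3 epsilon homodimer amine-coupled to a CM4 sensor chip, antibody injected as analyte, HBS-EP+ as running buffer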

First: B1
Second: B2
The “KD ratio (KD of CE115HA000/KD of altered form)” value of the first is lower: 0.74 for the first, 0.88 for the second.

First: B3
Second: B4
The “KD ratio (KD of CE115HA000/KD of altered form)” value of the first is lower: 0.63 for the first, 0.94 for the second.

From patent US20210388087A1 (Chugai, published 2021)
